Tests used:
[1] = molecular target: T1, mouse TfR ectodomain fused to a mouse IgG1 Fc fragment (mouse, UniProt Q62351 89-763); test: SPR, at equilibrium
T1 construct: extracellular domain; not shown: mouse IgG1 Fc fragment
In short: (§1)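 TfR–mouse Fc fusions, produced in-house, captured on HC 1500M or CM5 chips either directly or via immobilized anti-mouse IgG. VHHs injected in single-cycle or multiple-cycle kinetic mode on Biacore T200.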

[2] = molecular target: T2, rhesus monkey TfR ectodomain fused to a mouse IgG1 Fc fragment (rhesus monkey, UniProt I0FKY7 89-760); test: SPR, at equilibrium
T2 construct: extracellular domain; not shown: mouse IgG1 Fc fragment
In short: as §1

[3] = molecular target: T3, murine TfR expressed by murine neuroblastoma Neuro-2a cells (mouse, UniProt Q62351 1-763); test: competition with C5-Alexa680 (100 nM) on living Neuro-2a cells, 3 hrs at 37 C, flow cytometry; Ki/app, mean ± SD
T3 construct: whole, on cells; also called mTfR (N2a cells)
T3 sequence (Q62351 whole entry): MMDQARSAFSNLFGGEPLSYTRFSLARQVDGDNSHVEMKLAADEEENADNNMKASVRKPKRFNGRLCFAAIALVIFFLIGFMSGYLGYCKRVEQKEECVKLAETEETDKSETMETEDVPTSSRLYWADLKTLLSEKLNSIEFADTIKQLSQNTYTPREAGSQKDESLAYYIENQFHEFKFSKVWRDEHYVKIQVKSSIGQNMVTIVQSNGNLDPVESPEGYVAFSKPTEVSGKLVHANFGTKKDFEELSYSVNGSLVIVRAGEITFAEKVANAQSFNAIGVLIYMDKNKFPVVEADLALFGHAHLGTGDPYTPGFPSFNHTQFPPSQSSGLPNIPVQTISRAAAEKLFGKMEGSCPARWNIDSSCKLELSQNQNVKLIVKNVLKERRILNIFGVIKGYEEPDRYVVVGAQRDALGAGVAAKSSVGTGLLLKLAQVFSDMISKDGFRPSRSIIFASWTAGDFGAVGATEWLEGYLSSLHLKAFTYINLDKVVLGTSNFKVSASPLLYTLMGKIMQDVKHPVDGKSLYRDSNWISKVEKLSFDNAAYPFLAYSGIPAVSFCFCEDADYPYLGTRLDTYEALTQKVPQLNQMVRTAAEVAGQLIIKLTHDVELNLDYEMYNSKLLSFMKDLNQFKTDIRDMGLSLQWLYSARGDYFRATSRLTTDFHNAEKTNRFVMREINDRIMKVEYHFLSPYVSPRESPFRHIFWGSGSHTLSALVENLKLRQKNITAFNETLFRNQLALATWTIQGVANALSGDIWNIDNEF

[4] = molecular target: T4, human transferrin receptor (hTfR) fused to EGFP, on CHO cells (human, UniProt P02786 1-760); test: flow cytometry on CHO-hTfR-EGFP cells, 1 hr at 4 C, anti-6His + Alexa647 anti-mouse; nonlinear fit
T4 construct: whole, on cells; also called human TfR; CHO-hTfR-EGFP; not shown: EGFP from pEGFP-C1 vector, fused to the N-terminal (intracellular) end of hTfR
T4 sequence (P02786 whole entry, the tested form may be a part): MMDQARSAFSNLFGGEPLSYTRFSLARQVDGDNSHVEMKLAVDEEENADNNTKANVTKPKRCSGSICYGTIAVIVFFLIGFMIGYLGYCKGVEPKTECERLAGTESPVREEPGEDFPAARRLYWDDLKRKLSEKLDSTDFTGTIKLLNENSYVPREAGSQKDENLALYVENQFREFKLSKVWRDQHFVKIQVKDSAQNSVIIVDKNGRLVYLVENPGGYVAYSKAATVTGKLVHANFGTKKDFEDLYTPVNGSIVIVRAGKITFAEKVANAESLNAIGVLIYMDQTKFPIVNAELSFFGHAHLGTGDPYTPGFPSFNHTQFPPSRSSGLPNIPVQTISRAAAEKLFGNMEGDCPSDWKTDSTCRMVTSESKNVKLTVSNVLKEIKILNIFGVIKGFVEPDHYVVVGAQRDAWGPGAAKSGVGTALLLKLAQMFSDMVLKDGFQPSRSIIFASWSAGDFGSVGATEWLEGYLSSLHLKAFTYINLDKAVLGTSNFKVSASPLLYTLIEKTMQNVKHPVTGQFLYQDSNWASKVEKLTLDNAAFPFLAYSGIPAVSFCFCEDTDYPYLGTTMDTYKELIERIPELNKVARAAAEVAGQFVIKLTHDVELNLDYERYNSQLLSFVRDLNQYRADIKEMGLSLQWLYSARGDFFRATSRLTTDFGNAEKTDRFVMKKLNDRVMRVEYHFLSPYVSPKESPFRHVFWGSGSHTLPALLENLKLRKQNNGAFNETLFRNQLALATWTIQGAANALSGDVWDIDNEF
Procedure: CHO-hTfR-EGFP cells were incubated 1 hr at 4° C. with various concentrations of the indicated compounds. Detection of VHHs was performed using a primary mouse anti-6His (1/1000) and an Alexa647-conjugated anti-mouse secondary antibody (1/400). Measurements of cell-surface signal associated with VHH were performed using flow cytometry. The results are expressed as the ratio of Alexa647-associated fluorescence intensity of test compounds to that of background fluorescence.

[5] = molecular target: T4, human transferrin receptor (hTfR) fused …; test: competition flow cytometry on CHO-hTfR-EGFP cells, 4 C; VHH competitor in dilution series, phage-C5 tracer at EC80, anti-M13-A647
Procedure: FIGS. 17A-17D: Competition assays between VHHs and phage-VHHs. CHO-hTfR-EGFP cells were incubated 1 hr at 4° C. with VHHs (competitors) at increasing concentrations. Phage-VHHs (tracers) were then added at EC80 and incubated for 1 more hr. Phage-VHHs were detected with an anti-M13-A647 antibody (1/200). Fluorescence levels were assessed using flow cytometry. The ratio of fluorescence intensity for each point was normalized with the corresponding EGFP signal (receptor expression) and gave rise to the arbitrary unit. Data are presented as mean±SEM of independent experiments.
To evaluate whether selected VHHs compete one with the other for binding to the TfR receptor, competition assays using flow cytometry experiments were performed. All experiments were performed in 96 well plates using 2×10⁵ cells/well, at 4° C. with shaking. CHO cell line expressing the hTfR fused to EGFP was saturated with PBS/BSA 2% solution during 30 min to avoid nonspecific binding, followed by incubation with VHH (competitors) at increasing concentrations for 1 hr. Then, phage-VHHs (tracers) at EC80 were added and incubated 1 hr more. To detect the phage-VHHs, cells were washed twice with PBS/BSA 2% and incubated for 1 hr with an Alexa647-conjugated anti-M13 antibody. […] Fluorescence levels were assessed using an Attune NxT flow cytometer (Thermo Fisher Scientific). […]

[6] = molecular target: T3, murine TfR expressed by murine …; test: competition with the fluorescent reference VHH on Neuro-2a cells as in FIG. 25; Ki/app on mTfR, free VHH
Procedure: The binding of VHH-Oligo and VHH-hFc-Oligo conjugates to mTfR was evaluated using a competition assay on living cells expressing the receptor of interest, namely murine neuroblastoma Neuro-2a cells (N2a). N2a cells were grown in Dulbecco's Modified Eagle Medium (DMEM) GlutaMAX supplemented with 10% v/v FBS in 5% CO₂ at 37° C. Cells were seeded two days before experiments in 96-well plates at a density of 50.000 cells/well. […] Resuspended cells were transferred in a 96-deepwell plate (V-bottom) containing 1% fetal bovine serum (FBS)/0.02% sodium azide in phosphate-buffered saline (PBS) and then centrifuged for 5 min at 2000 rpm at 4° C. After removing the supernatant, 5 mM EDTA in D-PBS and 4% paraformaldehyde (PFA) (v/v 1:1) were added into wells to fix cells for 15 min at room temperature. PFA was removed by centrifugation (5 min, 3000 rpm, 4° C.) and cells were resuspended with 5 mM EDTA in D-PBS. Then the cellular A680-associated fluorescence signal was quantified using an Attune™ NxT flow cytometer (Thermo Fisher Scientific) equipped with Attune™ NxT v3.1.2. Experimental data (experimental triplicates) were fitted with GraphPad Prism® software using a nonlinear fit to determine the apparent Ki inhibition constants.

T1 sequence (Q62351 89-763): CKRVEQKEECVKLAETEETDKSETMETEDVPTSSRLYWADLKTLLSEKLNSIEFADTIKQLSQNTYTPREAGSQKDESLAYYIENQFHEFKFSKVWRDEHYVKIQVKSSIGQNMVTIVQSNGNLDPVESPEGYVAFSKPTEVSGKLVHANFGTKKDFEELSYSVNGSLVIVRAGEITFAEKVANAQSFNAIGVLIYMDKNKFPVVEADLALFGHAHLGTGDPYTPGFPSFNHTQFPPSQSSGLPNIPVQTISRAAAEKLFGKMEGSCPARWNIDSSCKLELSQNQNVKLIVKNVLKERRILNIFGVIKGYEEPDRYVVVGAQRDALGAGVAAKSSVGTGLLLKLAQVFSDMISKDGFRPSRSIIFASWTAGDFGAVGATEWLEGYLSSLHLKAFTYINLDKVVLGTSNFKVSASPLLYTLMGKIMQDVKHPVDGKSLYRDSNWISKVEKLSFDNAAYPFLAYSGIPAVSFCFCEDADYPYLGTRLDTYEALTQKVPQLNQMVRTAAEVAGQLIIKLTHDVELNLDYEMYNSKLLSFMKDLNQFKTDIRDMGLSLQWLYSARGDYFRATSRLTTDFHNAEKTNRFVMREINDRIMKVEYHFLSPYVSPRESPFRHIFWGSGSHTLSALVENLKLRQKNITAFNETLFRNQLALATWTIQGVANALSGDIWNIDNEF

B1: VHH A (C5) (VHH)
VHH: EVQLVESGGGVVQPGGSLKLSCVASGTDFSINFIRWYRQAPGKQREFVAGFTATGNTNYADSMKGRFTISRDNTKNAVYLQIDSLKPEDTAVYYCYMLDKWGQGTQVTVSS
notes: form with the C-terminal myc-His6 tag (x = 1), since the VHHs were detected with anti-6His or anti-cMyc; the same holds for m12 to m126
Kd [1]: 88.2 nM | Kd [2]: 13.1 nM | Ki [3]: 319 nM | Kd [4]: 5.15 nM | IC50 (read off the curve) [5]: ~50 nM | Ki [6]: 319 nM
